Test results reported in article PMC2972695.

What was measured:
GST-SHOX2 [1] = target: T1, GST-SHOX2 (UniProt O60902 1-331); experiment: EMSA
GST-SHOX2 [2] = target: T1, GST-SHOX2; experiment: competition

T1 sequence (O60902 whole entry): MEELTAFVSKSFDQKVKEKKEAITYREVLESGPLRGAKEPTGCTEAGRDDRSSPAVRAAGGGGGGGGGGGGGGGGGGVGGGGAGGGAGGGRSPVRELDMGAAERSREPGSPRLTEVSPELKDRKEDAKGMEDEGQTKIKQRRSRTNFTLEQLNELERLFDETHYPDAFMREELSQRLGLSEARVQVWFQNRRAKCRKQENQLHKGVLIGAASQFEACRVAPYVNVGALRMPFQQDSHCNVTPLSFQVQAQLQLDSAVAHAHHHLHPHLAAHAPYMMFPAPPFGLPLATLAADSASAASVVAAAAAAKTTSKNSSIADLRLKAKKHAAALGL

B1: BMP4 EMSA oligonucleotide (34 bp conserved promoter motif) (dsDNA)
DNA 1: GGGTCTCATTATATTCAAATATTCCTTTTAGGAGCCA
DNA 2: GGGTGGCTCCTAAAAGGAATATTTGAATATAATGAGA
binding result (GST-SHOX2 [1]): binds

B2: BMP4 oligonucleotide, unlabelled homologous competitor (dsDNA)
DNA 1: B1 DNA 1
DNA 2: B1 DNA 2
binding result (GST-SHOX2 [2]): binds
